The record followed here is paper PMC7072297, “Structural Determinants Responsible for the Preferential Insertion of Ribonucleotides by Bacterial NHEJ PolDom” (Biomolecules, 2020).

Substrate in this data set: Nc1nc2c(ncn2[C@@H]2O[C@H](COP(=O)(O)OP(=O)(O)OP(=O)(O)O)[C@@H](O)[C@H]2O)c(=O)[nH]1
Description: steady-state primer extension, denaturing PAGE. The note with it: 200 nM primer/template DNA (Cy5P/T29(A)), misinsertion opposite template dA, 5 mM MnCl2, pH 7.5, 30 °C. The format is biochemical, Pseudomonas aeruginosa. The text has this:
steady-state primer extension, denaturing PAGE on Pa-PolDom

B1: Pa-PolDom (Pseudomonas aeruginosa PAO1) (protein)
chain: GARKASAGASRAATAGVRISHPQRLIDPSIQASKLELAEFHARYADLLLRDLRERPVSLVRGPDGIGGELFFQKHAARLKIPGIVQLDPALDPGHPPLLQIRSAEALVGAVQMGSIEFHTWNASLANLERPDRFVLDLDPDPALPWKRMLEATQLSLTLLDELGLRAFLKTSGGKGMHLLVPLERRHGWDEVKDFAQAISQHLARLMPERFSAVSGPRNRVGKIFVDYLRNSRGASTVAAYSVRAREGLPVSVPVFREELDSLQGANQWNLRSLPQRLDELAGDDPWADYAGTRQRISAAMRRQLGRG
notes: polymerization domain, residues 533-840; Arg532 codon replaced by start Met; E. coli BL21(DE3)
As to B1, the Km (commonly the concentration of substrate that gives half-maximal velocity) was found to be 1.211 ± 0.09 µM; the kcat – broadly, the number of substrate molecules converted per active site and unit of time at saturation – amounted to 0.92 ± 0.02 s⁻¹.
